In US20200270588A1, “GLUCOSYL TRANSFERASE POLYPEPTIDES AND METHODS OF USE” (Syngenta Participations AG, priority 2017, published 2020):
Changes are numbered by the printed parent chain. Numbers in names are those of the source.

B1: I153T: bx9 SEQ ID NO:1 mutant (protein)
chain: MASSRTGAGAGGRVVVFPFPFQGHFNPVMRLARALHARGLAITVFHSGALDPADYPADYRFVPVTVEADPKLLASEDIAAIVTTLNASCDAPFRARLSALLAAEGRDSVRCVFTDVSWNAVLTASSDLGVPALGMMTASAASLRDYMAYRTLTDKGYLPVKEERKEDPVPELPPYLVKDLLRVDTSDLEEFAELLARTVTAARRASGLIFNTFPLIETDTLAEIHKALSVPVFAVAPLNKLVPTATASLHGVVQADRGCLQWLDTQQPGSVLYVSFGSMAAMDPHEFVELAWGLADSKRPFVWVVRPNLIRGFESGALPDGVEDEVRGRGIVVAWAPQEEVLAHPAVGGFLTHNGWNSTVEAISEGVPMVCCPRHGDQFGNMRYVCDVWKVGTELVGEQLERGQVKAAIDRLFGTKEGEEIKERMKEFKIAAAKGIGIGVDVDETASPRTDLTDLVDLIKSF
modifications: Zea mays
B2: L194N: bx9 SEQ ID NO:1 mutant (protein)
chain: B1 chain with T153I, L194N
modifications: Zea mays
B3: I153C: bx9 SEQ ID NO:1 mutant (protein)
chain: B1 chain with T153C
modifications: Zea mays
B4: I153K: bx9 SEQ ID NO:1 mutant (protein)
chain: B1 chain with T153K
modifications: Zea mays
B5: T220A: bx9 SEQ ID NO:1 mutant (protein)
chain: B1 chain with T153I, T220A
modifications: Zea mays
B6: A202F: bx9 SEQ ID NO:1 mutant (protein)
chain: B1 chain with T153I, A202F
modifications: Zea mays
B7: L194T: bx9 SEQ ID NO:1 mutant (protein)
chain: B1 chain with T153I, L194T
modifications: Zea mays
B8: F210M: bx9 SEQ ID NO:1 mutant (protein)
chain: B1 chain with T153I, F210M
modifications: Zea mays
B9: I153L: bx9 SEQ ID NO:1 mutant (protein)
chain: B1 chain with T153L
modifications: Zea mays
B10: L194E: bx9 SEQ ID NO:1 mutant (protein)
chain: B1 chain with T153I, L194E
modifications: Zea mays
B11: I153R: bx9 SEQ ID NO:1 mutant (protein)
chain: B1 chain with T153R
modifications: Zea mays
B12: L194I: bx9 SEQ ID NO:1 mutant (protein)
chain: B1 chain with T153I, L194I
modifications: Zea mays
B13: A202C: bx9 SEQ ID NO:1 mutant (protein)
chain: B1 chain with T153I, A202C
modifications: Zea mays
B14: I153Y: bx9 SEQ ID NO:1 mutant (protein)
chain: B1 chain with T153Y
modifications: Zea mays
B15: I153V: bx9 SEQ ID NO:1 mutant (protein)
chain: B1 chain with T153V
modifications: Zea mays
B16: T220C: bx9 SEQ ID NO:1 mutant (protein)
chain: B1 chain with T153I, T220C
modifications: Zea mays
B17: T220D: bx9 SEQ ID NO:1 mutant (protein)
chain: B1 chain with T153I, T220D
modifications: Zea mays
B18: V199N: bx9 SEQ ID NO:1 mutant (protein)
chain: B1 chain with T153I, V199N
modifications: Zea mays
B19: L194G: bx9 SEQ ID NO:1 mutant (protein)
chain: B1 chain with T153I, L194G
modifications: Zea mays
B20: T220R: bx9 SEQ ID NO:1 mutant (protein)
chain: B1 chain with T153I, T220R
modifications: Zea mays
B21: I153F: bx9 SEQ ID NO:1 mutant (protein)
chain: B1 chain with T153F
modifications: Zea mays
B22: A202V: bx9 SEQ ID NO:1 mutant (protein)
chain: B1 chain with T153I, A202V
modifications: Zea mays
B23: T220V: bx9 SEQ ID NO:1 mutant (protein)
chain: B1 chain with T153I, T220V
modifications: Zea mays
B24: L194C: bx9 SEQ ID NO:1 mutant (protein)
chain: B1 chain with T153I, L194C
modifications: Zea mays
B25: A202L: bx9 SEQ ID NO:1 mutant (protein)
chain: B1 chain with T153I, A202L
modifications: Zea mays
B26: F210W: bx9 SEQ ID NO:1 mutant (protein)
chain: B1 chain with T153I, F210W
modifications: Zea mays
B27: I153Q: bx9 SEQ ID NO:1 mutant (protein)
chain: B1 chain with T153Q
modifications: Zea mays
B28: A202M: bx9 SEQ ID NO:1 mutant (protein)
chain: B1 chain with T153I, A202M
modifications: Zea mays
B29: T220S: bx9 SEQ ID NO:1 mutant (protein)
chain: B1 chain with T153I, T220S
modifications: Zea mays
B30: L194A: bx9 SEQ ID NO:1 mutant (protein)
chain: B1 chain with T153I, L194A
modifications: Zea mays
B31: L194V: bx9 SEQ ID NO:1 mutant (protein)
chain: B1 chain with T153I, L194V
modifications: Zea mays
B32: T220Q: bx9 SEQ ID NO:1 mutant (protein)
chain: B1 chain with T153I, T220Q
modifications: Zea mays
B33: T220G: bx9 SEQ ID NO:1 mutant (protein)
chain: B1 chain with T153I, T220G
modifications: Zea mays
B34: L194D: bx9 SEQ ID NO:1 mutant (protein)
chain: B1 chain with T153I, L194D
modifications: Zea mays
B35: T198V: bx9 SEQ ID NO:1 mutant (protein)
chain: B1 chain with T153I, T198V
modifications: Zea mays
B36: I153M: bx9 SEQ ID NO:1 mutant (protein)
chain: B1 chain with T153M
modifications: Zea mays
B37: L195I: bx9 SEQ ID NO:1 mutant (protein)
chain: B1 chain with T153I, L195I
modifications: Zea mays
B38: L194Q: bx9 SEQ ID NO:1 mutant (protein)
chain: B1 chain with T153I, L194Q
modifications: Zea mays

Test: UDP luminescence plate assay of E. coli extracts, saturation mutants of SEQ ID NO: 1, herbicide V
Format: biochemical, Zea mays
Details: improvement factor relative to w/t bx9 = 1.0, rounded to nearest 0.5; extract activity basis; compound V

| Molecule | Preferred amino acid substitutions and (IF) based on RLU/min/ul | Most Preferred amino acid substitutions and (IF) based on RLU/min/ul |
| --- | --- | --- |
| B1 | T,C,K,V,L,M,Y(1.0); |  |
| B2 |  | C,N,V(3.0) |
| B3 | T,C,K,V,L,M,Y(1.0); |  |
| B4 | T,C,K,V,L,M,Y(1.0); |  |
| B5 | C,A,N,E,L,I,M(1.5) |  |
| B6 | T,I,V,L,F(1.5) |  |
| B7 | 1.5 |  |
| B8 | M,W(1.0) |  |
| B9 | T,C,K,V,L,M,Y(1.0); |  |
| B10 | 1.0 |  |
| B11 | Q,R,F(1.5) |  |
| B12 |  | 2.0 |
| B13 | S,I,C,M(1.0) |  |
| B14 | T,C,K,V,L,M,Y(1.0); |  |
| B15 | T,C,K,V,L,M,Y(1.0); |  |
| B16 | C,A,N,E,L,I,M(1.5) |  |
| B17 | G,Q,D,V(1.0) |  |
| B18 | M,N(1.0) |  |
| B19 | 1.0 |  |

| Molecule | Preferred amino acid substitutions and (IF) based on RLU/min/ul | Most Preferred amino acid substitutions and (IF) based on RLU/min/ul |
| --- | --- | --- |
| B20 |  | S,R(2.5) |
| B21 | Q,R,F(1.5) |  |
| B22 | T,I,V,L,F(1.5) |  |
| B23 | G,Q,D,V(1.0) |  |
| B24 |  | C,N,V(3.0) |
| B25 | T,I,V,L,F(1.5) |  |
| B26 | M,W(1.0) |  |
| B27 | Q,R,F(1.5) |  |
| B28 | S,I,C,M(1.0) |  |
| B29 |  | S,R(2.5) |
| B30 |  | 2.5 |
| B31 |  | C,N,V(3.0) |
| B32 | G,Q,D,V(1.0) |  |
| B33 | G,Q,D,V(1.0) |  |
| B34 | 1.0 |  |
| B35 |  | V(2.0) |
| B36 | T,C,K,V,L,M,Y(1.0); |  |
| B37 | I(1.0) |  |
| B38 | 1.5 |  |
